experiment: soluble on expression in E. coli; label from the status in PepcDB or PDB records

Soluble on expression in E. coli, not soluble:
MGSDKIHHHHHHMNAERQPSCCKVRLLLCDKSYPSHQSPIYTPTPPPWPLLALPGGVIMRTYLSSVAAIMSRSPDPAPRSSAPGRRASSSTRPPLARIGEVAYLKVVAVNTTGAFLDWGQPKDVLLPFAEQRFRPEVGKRVLVMLYEDAQGRPVASMRLDRFLADEATDLKAGDQVALVVAERTDLGFKAVVDHRYWGLLYADDIVHPPRRGQRLTGYIKRVREDGRLDLAMLPPGEAGLDVVGDKVLALLRCHGGFVALGDKTPAAEIKARVGVSKSAFKQAVGRLYKKRLITIEAEGIRLTREAIDDASSD
MGSDKIHHHHHHMNAQIQIIKTAQGHMALCQDTPKDIAPAWFAVDFWRAKDAVVGSSKGRYTTWFVAFEHSHWVLRHYWRGGLMEKFSKDAYVYTGLENTRAMAELRLLNILYHEDFAVPKPIAANIVRDGLFYRADIIIERVEGAEDLVAKLSKGLMNTEQWQALGATIAQFHQRGVYHADLNAKNILFQPAQTAPITPERFYLIDFDRGELKTPSPQWQQSNLDRLLRSFNKEQGKLPSLAFTADNWSSLMMGYQAAMQSA
MGSDKIHHHHHHMNDAAPTCTGGCTLNVLHTTTYHYSQPVEHAQQRAVATPPDLPWQSVTAHDTRIEPVPTHQHVRTDAFGNRVLHFMLDVPHTQMQLTCASTVVLTPRWQTLDPSASAPWETVAQSLRFHAAQPFEPATQFAFASPNIALHPSLRDYALPSFGAGVPVVAGAMDLMRRIHADFTYHSESTEVHTPAMQAFAQRSGVCQDFAQVMIGCLRSVGVAARYVSGYLCTEPPPGEERLVGADASHAWVSVYCPVAGWVDLDPTNNVLADTRHVTLAWGRDYSDVPLLHGVIVGGGAHGVDVGVTVVPVD
MGSDKIHHHHHHMNEDYQKTIEFHGHECPGVTIGYRVSKYVLDHYERSEDEQLVAIVENNSCSIDGIQQMLGCTFGKGNLKFKDNGKHVYTFYSRGNDKALRIYLKYNLAEKVGNFNKKFNEGTLTAEDEKQMFERRKEAIKHLMEAPEEELFDVQWVEIEEPKKARLYPSLTCENCGETFMEIKGRTIDGKIVCKECFQKLVH
MGSDKIHHHHHHMNFETVIGLEVHVELKTESKIFSASPNHFGAEPNANTSVIDLGYPGVLPVLNKAAVEFAMKAAMALNCEVATDTKFDRKNYFYPDNPKAYQISQFDKPIGENGWIEIEVDGTKKKIGITRLHLEEDAGKLTHSGNGYSLVDFNRQGTPLIEIVSEPDIRTPQEAYAYLEKLKSIIQYTGVSDCKMEEGSLRCDANISLRPVGQEEFGTKTELKNLNSFNFVRKGLEYEEKRQAQVLLSGGEILQETRRYDEAANKTVLMRVKEGSDDYRYFPEPDLVALHIDDEWKARIRSEIPELPDARKKRYVEELGLPAYDAMVLTLTKEMSDFFEETIAKGADPKLASNWLMGEVSGYLNAEQKELDEVALTPDGLAKMIQLIEKGTISSKIAKKVFKDLIEKGGDPEEIVKAKGLVQISDEGELRKYVVEVLDNNQQSIDDFKNGKDRAIGFLVGQIMKATKGKANPPMVNKLLLEEINKR
MGSDKIHHHHHHMNFKQLLIDNFTYKTSYIARQAQGMNVKETKDYIAVDCGLPADTFNIITLLNNNVTEGIEKLYKEVNNYNQKKFPMSVWFWDDRYEQTIKSELIKLDLKEAEQNIAMVAELNTIHPTINMPEGFTIQKASSPEQIKKFGETLANLFGSSEEGIHVQAFYNQTASFDLWNSGNMNLYLGLYKDEVISVGSLVCTKDSIGIYDIATKEEMRGKGFGSTMFHYLLQEAKALNVAQCVLQASPDGINIYKKAGFQSVGQMTVFENRHLFE
MGSDKIHHHHHHMNFLVRNLVENLEEGDRVILDVTHSFRSIPLMASVVALYLKEAKDVNVSVVYGKYNKETKVTECEDLTPLTKATSWIYAVRLFKEYGYAKELADLIKKRNEEIYRRSQSSKKPKLLGSMSQKLQDLSSSIRLGSIVAIRKNLTNFFNFIDRNKARIREETEVFVPEIAALLDGIEKRYRVIHVKSENFELSEKELESEKELLDFYLQTGDLGMALRLAREYLINVYLMSGGEKSDFLDRNVRESVSISTFGYDTILQARNHVAHFGFNKLQLPSLKKIEDHLKVLVQTPPEQLLESARKTQRNRKRALLTPLGTTKGALYTVLKKISPDLLLVITSKQGKAILSEILEKAEFKGEFRVILLEDPFMGVSEIDRVVSEIKEHLSDVDEVIVNLTGGTTFLTYVIERAKNQIRYGRKVKTILAVDKRTYEEQKQNPFVVGEILELD
MGSDKIHHHHHHMNFQRDFNDLLNALLTDWRNQFPDADLSQGSLIYMKSACLASALWGLYKYQEWISKQIFPDTAETKYLEHHAWVRGLSRRSGETDEELLARLLEYIRRPPAGGNKYDYQKWALEIDNVANAWCIPLSQGPGTVDVIIAADETVTGSEIPSSHALTGTTTAITENKLVDGAADFMATGDGGPVRIGDIAVNDDTGGQAVITAVDNATQLTLDTDIFSSIGQSYTLKSLTAQVGEYIDDVRPVTVSIVRILPPAVTLQDVTMTVTGTVNKEAIASAITSLLRSLVPGQTLYLSRLIAIAIQEGATNASISAPAADMSPGPYEMLRPGTITVS
MGSDKIHHHHHHMNHPSVFHPGPAAISPQQRLLLMHEGEWEDFIEECVRQLQKEGNYVEVVALGGSGDKGRDVCGYSKEYPAAGTWDLYQAKHYDSPLTPSEFFPELAKFVTCVWREDYTRPAKYFICASRDVGTTLFDLLKNPVRLKERLLDDWRKKGGKFGKFKQPLDADLEKFIEVFPFDVVKRLPPMELLSIHERDTASYWARFGVLAPRENDPEVPPKPVSSESTYVTALLRVYAEHAQVKIDDVPDIPPAHGAHFKAQRRLFYSAEGLHRFSRDKLPGAFEALLDEVENGIGAELTFPHESGFVRLHSVLKTANVLQIMNNPLRARLRSGDLQGSCHHLANQGRAQWVESDEADGESV
MGSDKIHHHHHHMNIDAHNLNDLMYFSQVVEHGGFSAAERVLGISKSRLSRRLTELEAALGVRLLQRSTRKLALTEAGELFYQHCQAMLAEAQAAMNAVQQLRSSPRGSVRVSVPVTLSQTMLSRILPEFLHRYPEVKVHIRVTNRVIDLFEDSVDVALRVRSEPPQNANIVVRPLWRTEQMLVGAPSLLSQNAPPLVPDDLARFETLDTPSVDGRHVFNLIAPDGTRHLHEHDPRLVTADLMTIREAVLDGLGIAALPEMMYGNALRAGQLSPVMPGWTLPVPQLYAAFVSRQGMPPAVRAFVDYLVEKLDHGDYKQPSCPERDKKEAAAADVSST
MGSDKIHHHHHHMNKSIRSSTLTRIRLIEAASQVFASLGVQGATTREIARVAGVNEVTLFRHFASKEQLLGAVIKNALALQTEALAYPEAWTQDLKIDLRQYAHLYNTMLEAQEDLIRTFIGEAKRHPEAAKQVIQEAAKPLREKLVAYLESSQKLGTVRVDLAPFPAVDMFTGMLLAGMLCRSAKFNQGSYSCEDYIETCVDIFVRGISTSNSSQCGCKF
MGSDKIHHHHHHMNKTLVIGAAFVDVIVDVPKLPKTGDDIPGNLKSYVVGGSAFNVFGTLKHEKINTDLFVPVGEGNYANQIKEKMRELKIPIKLPVRGNDNGWDISFIEPGGERSFLTIQGIEQDWKTEWFKTININEYKYFYLSGYEMENENAGKVILKELQKRIPESLLLFDASPRISSISKTIIQKIMKKNVIINCNKEEANYFMPKGHSLEEKARRIYAKTESPVIVTLGSNGSYYYDGNDHIIPSEKKDKIINTIGAGDTHCGGILAGLNKDMSFKDSVILANRLSGLVVEKESGSL
MGSDKIHHHHHHMNLEQILLAISNPNDNELTIAGLEAAKVNWSVFYPELERLMDQFIADDTSLTDEQEAIVFFGTLLLAELKYSPALAKCLQLFARSDTYLTPIEAIFGDALTELTATLFFNVADGSTQTLSDYIVDGHQAMYCKASAIEAVFAQYEVGVIDKTELVEHVTRWLAAFLALPSSNNSFLISVLADSCIKYQLDDFKPQFIDLCDNDLFDEDRFKQCEVKAWDKANAAKLIESGNIQTKFNVVDTLNAWIVDDSNNEVADNMSNEDSDAFESLMGEDGLLADILYDENTILENSVPVSSLPTAGRNDPCPCGSGKKYKKCCLR
MGSDKIHHHHHHMNLKDKTLLITGIDEFVGLRTAELAIAQGMKVRGLKSSTEQNKQLQNLGVEIIIGSITDSTIAQKACQGVDIVLHTDQLAEEAGAIKNFRDVNVGGTVNMAKAAKQAGVKTFVHLSSVMVYGFNYPNGVTESGPLSGENNPYCETKIEAETAVLELNNPPDFGIIVIRAGDVYGPGSIPWIVRPVLMMRQKLFACANDGKGVINHVYIDNLIDGIFLAIEKETYGEIFNITDGQETSWKEYFMRLAAMEGLSAPLSLPKDEIKLFLKLRVQGQKLFRKKVDILPESIDFMTRPYACSIVKAQSMLNYKPTIHLEEGMQRTHEWLQKTDIQSLIK
MGSDKIHHHHHHMNNTPTPPKVLLLLTSLHGGGAERVAVHLLNRLQGRFDMRMGLLRASGPYLDQADRSRLIVAPEGETHFNFDGPNSANYRPGKLVGSAVRAPLAFRRMIRETQPDVVLSFLKGTNLLVWLALMNMGRARPRWIAREGNNVLAVIREEAPNGAVARASRDLTAKAYRRADAVLANSTDMAAGLITDLDLDPAKMRMINNPIDIDGIREAAGESLPGAPNRPFILTAGRLEYQKAHEVLLRAFARSEAWRTHALVILGKGSRLGELHRLAAQLGIGEYVRFIGFVPNPYAWMARADLFVLPSRWEGFPTVAAEAMACGTPLLLTDCRFGARDIVEPGVTGELVPVNDEAALATEIAALLASPERRSALARAGREKVERFRLERMLEAYAALFDEQFAARRR
MGSDKIHHHHHHMNSLGAVIKEIRKNRKLTQKMLSEDICSQSVLSRIENNEELPNVLVMQQLCDRLGVTVDQIMRYKSGDVHVVTYSFEKMAEYFRHKKYQLLLNYLKENRIEEQLYLDTDWQKYYYYLGSCELFVLNDYEKAIASLRKGLSFTYKADKLNVSDLEIQLISCLGATYGYMGNRVEAERFLSLSIHYFNQLPNERSNAELTKIFFNYADFLFKNYTEKDAEIYVDQGITWARKKNSYYYLSELLNLKYLVLMRKNKHEEAERYLNLAQQMKNVESGNL
MGSDKIHHHHHHMNSPADYDPKPRRASVAVDVGGVIVGGGAPVVVQSMTNTDTADIDATVRQVAALFQAGSEMVRITVDRDESAAAVPKIRERLLRLGMDVPLIGDFHYIGHKLLADHPACAEALAKYRINPGNVGFKDKKDKQFGEIVEMAIRYDKPVRIGVNWGSLDQELLTTLMDRNKEQGFPLSARQVTREAIVQSALISAELAEEIGLPRNRIILSAKVSQVQDLIAVYSMLSERSNHALHLGLTEAGMGSKGIVASSAAMGYVLQHGIGDTIRVSLTPEPNGDRTREVQVAQELLQVMGFRQFIPVVAACPGCGRTTSTVFQELAQNIQNDIRKNMPIWREKYPGVEALNVAVMGCIVNGPGESKHADIGISLPGTGESPAAPVFIDGEKALTLRGPNIAADFEALVIDYIEKRFGQKDAAE
MGSDKIHHHHHHMNSPYTRSPRTIKHAFVTGATGLLGNNLVRALLKQGIKVTALVRSMEKARLQFGDLPIQYVKGDILNPEAFRSAFTDCDTLFHTAAFFRDSHKGGKHWQELYDTNVTGTTHLLKAAYEEGIRQMIHTSSIAVLKGERHQLIDETMSRDPSTKLDYYRSKILSENAVSNFLKEYPDLFLCYVLPGSMYGPGDMGPTATGQLILDYMQQKLPGIITKASYSVVDTRDVADIHILALKYGRRNERYLAAGRHMTMESIVKTLEEITGIPAPKRHIPIFLVQALAQWNELYHKITGKPVLVSKEIADITAEEYLRTYFSHKKTEQELGGQFRPFEETLLDTVRWYRNHGYLN

Source: the DeepSol protein solubility set
